Experimental findings from patent publication US20240002500A1 (GUANGDONG FAPON BIOPHARMA, published 2024) are described below.

Usually EC50 stands for the concentration at which the effect is half-maximal. Read a high EC50 as a less potent agent. Usually IC50 stands for the concentration that gives 50% inhibition. A high value points to weaker potency.

Test [1] concerns the target T1, human Tigit extracellular domain recombinant protein hTigit-his (Acrobiosystem, Cat.TIT-H2H3) (human, UniProt Q495A1 22-141).
T1 construct: extracellular domain; Bought; not shown: his tag
T1 sequence (looked up): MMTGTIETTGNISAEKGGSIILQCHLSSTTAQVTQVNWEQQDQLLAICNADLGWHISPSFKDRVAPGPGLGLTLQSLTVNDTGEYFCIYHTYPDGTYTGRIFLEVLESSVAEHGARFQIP
Nature of the test: BLI epitope binning (ForteBIO QKe), hTigit-his on anti-Penta-HIS sensor; competitor R0223. The method, then: Epitope competition analysis was performed on an anti-human TIGIT antibody with an MD ForteBIO QKe platform. An experimental method included: a human Tigit extracellular domain recombinant protein hTigit-his (Acrobiosystem, Cat.TIT-H2H3, lot-1336-76GF1-F9) carrying a his tag was diluted with an equilibration buffer (1×PBS+0.02% Tween 20), until the final concentration was 1.5 μg/ml. The anti-human Tigit antibody was diluted with the equilibration buffer (1×PBS+0.02% Tween 20), the final concentration being 5 μg/ml. After an anti-Penta-HIS biosensor (ForteBIO, Cat. 18-5122) was fully hydrated, first the hTigit-his recombinant protein was solidified for 180 seconds, then equilibrated for 30 seconds, and bound to the first anti-human Tigit antibody for 180 seconds, then equilibrated for 30 seconds, and then bound to the second anti-human Tigit antibody, binding time being 300 seconds. The whole reaction was performed at 25° C. and 1000 rpm; and finally, Octet analysis software was used to perform epitope binning analysis.
(BLI is a label-free optical method that tracks binding on a fibre tip over time.)

Test [2] addresses T2, full-length human TIGIT on cells (human, UniProt Q495A1 22-244).
T2 construct: whole, on cells; The same protein is used for CHO-hTIGIT, PBMC and NK92-hTIGIT; the cells are named under assay; also called CHO-hTIGIT; hTIGIT
T2 sequence (looked up): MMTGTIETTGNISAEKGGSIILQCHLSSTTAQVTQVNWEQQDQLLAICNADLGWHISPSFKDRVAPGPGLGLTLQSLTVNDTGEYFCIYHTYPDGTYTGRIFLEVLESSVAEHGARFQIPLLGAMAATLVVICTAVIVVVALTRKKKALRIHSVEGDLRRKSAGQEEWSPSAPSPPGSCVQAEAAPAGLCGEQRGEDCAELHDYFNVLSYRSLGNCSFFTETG
Nature of the test: FACS titration on PBMC of healthy people (natural TIGIT); table under the plot, unit taken from the x axis Log[µg/mL]. The method, then:
In order to verify that the prepared anti-human TIGIT antibody may effectively bind to naturally expressed TIGIT, the following experiments were specifically performed. PBMC cells in healthy people to be detected were counted, centrifuged at 300 g for 5 min, resuspended with an FCM buffer; and cell density was adjusted to 4E+06 cell/mL for later use. Samples to be detected (including a positive control antibody and a mouse monoclonal antibody) were diluted with the FCM buffer to 20 μg/mL, and then the FCM buffer was used to perform 3× serial dilutions of 12 concentration points; and the isotype control antibody was diluted with the FCM buffer to 20 μg/mL. According to an experimental design, in each well, 50 μL of the antibody and 50 μL of the cell (the volume of each cell added into a 96-well V-shaped plate being 2E+05 cell/well) were respectively added in the 96-well V-shaped plate; and incubation was performed in dark on ice for 30 min. Centrifugation (300 g/5 min) was performed; supernatant was discarded; 200 μL of the FCM buffer was added for washing once; centrifugation (300 g/5 min) was performed; and the supernatant was discarded. […] Centrifugation (300 g/5 min) was performed; supernatant was discarded; 200 μL of the FCM buffer was added for washing once; centrifugation (300 g/5 min) was performed; and the supernatant was discarded. […]

The target in test [3] is T3, hTIGIT-hFc (human, UniProt Q495A1 22-141).
T3 construct: also called antigen protein hTIGIT-hFc; human TIGIT recombinant protein carrying a human Fc tag; not shown: human Fc tag
T3 sequence (looked up): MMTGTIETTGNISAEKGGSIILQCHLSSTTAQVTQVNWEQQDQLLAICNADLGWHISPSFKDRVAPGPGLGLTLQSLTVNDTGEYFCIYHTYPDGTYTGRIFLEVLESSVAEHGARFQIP
Nature of the test: FACS blocking: antibody preincubated with hTIGIT-hFc, then CHO-hPVR cells; unit as printed on the axis, Log(uM); the same range is labelled nM in Fig. 4A and the method's top concentration of 40 µg/mL fits nM. The method, then:
The CHO-engineered cells CHO-hPVR cells recombinantly expressing full-length human PVR were counted centrifugated at 300 g for 5 min, resuspended with an FCM buffer, the cells were added to the 96-well V-shaped plate; the volume of each cell added into a 96-well V-shaped plate was 2E+05 cell/well (being added in 50 μL/well); and incubation was performed in dark on ice for 30 min. Centrifugation (300 g/5 min) was performed; supernatant was discarded; 200 μL of the FCM buffer was added for washing once; centrifugation (300 g/5 min) was performed; and the supernatant was discarded. Secondary antibodies (PE anti-human IgG Fc, 1:500 dilution) were added to the 96-well V-shaped plate (in 100 μL/well); and incubation was performed in dark on ice for 30 min. Centrifugation (300 g/5 min) was performed; supernatant was discarded; 200 μL of the FCM buffer was added for washing once; centrifugation (300 g/5 min) was performed; and the supernatant was discarded. 100 μL of the 1×PBS was added for resuspending, and on-machine detection was performed.

For test [4], the target named is T3, hTIGIT-hFc. Kind of test: FACS blocking: hTIGIT-hFc bound on U2-OS cells (PVR and CD112), then antibody, APC anti-human IgG Fc. The method, then:
U2-OS cells to be detected (human osteosarcoma cells, naturally and highly expressing PVR and CD112 by means of detection) were counted; centrifugated at 300 g for 5 min; resuspended with an FCM buffer; and cell density was adjusted to 4E+06 cell/mL for later use. […] According to an experimental design, in each well, 50 μL of the antigen protein and 50 μL of the cell (the volume of each cell added into a 96-well V-shaped plate being 2E+05 cell/well) were respectively added in the 96-well V-shaped plate; and incubation was performed in dark on ice for 30 min. Centrifugation (300 g/5 min) was performed; supernatant was discarded; 200 μL of the FCM buffer was added for washing once; centrifugation (300 g/5 min) was performed; and the supernatant was discarded. The antibody was added to the 96-well V-shaped plate (in 100 μL/well); and incubation was performed in dark on ice for 30 min. Centrifugation (300 g/5 min) was performed; supernatant was discarded; 200 μL of the FCM buffer was added for washing once; centrifugation (300 g/5 min) was performed; and the supernatant was discarded. Secondary antibodies (APC anti-human IgG Fc, 1:500 dilution) were added to the 96-well V-shaped plate (in 100 μL/well); and incubation was performed in dark on ice for 30 min. […]

B1: Tigit-5 mouse monoclonal antibody (antibody, V domains shown)
VH: QVQLQQPGAELVRPGASVKLSCKASGYSFTSYWMNWVKQRPGQGLEWIGMIRPSDSETRLNQMFKDKATLTVDKSSSTAYMQLSSPTSDDSAVYYCAGIHDYGHGAYWGQGTLVTVSA
VL: DIQMIQSPASLSVSVGETVTITCRASENIYSNLAWYQQKQGKSPQLLVYAASHLPDGVPSRFSGSGSGTQYSLKINSLQSEDFGSYYCQHFWGTPRTFGGGTKLEIKR
notes: Mouse monoclonal antibody from hybridoma
Regarding B1, the “epitope binning signal (name and unit not given)” value in test [1] turned out to be 0.0443.

B2: 3Tigit-16 mouse monoclonal antibody (antibody, V domains shown)
VH: EVQLQQSGPELVKPGASVKMSCKASGFTFTDYFMDWVKQSRGASFEWIGRLNPNNGRTSYNQKFKGKATLTVDKSSSTAYMELNSLTSEDSAVYYCARGDLGRWYFDVWGAGTTVTVSS
VL: QIVLTQSPAIMSASPGEKVTMTCSASSSVSYMHWYQQKSGTSPKRWIYDTSKLASGVPTRFSGSGSGTSYSLTISSMEAEDAASYFCQQWSSNSLTFGAGTKLELKR
notes: as for B1
Regarding B2, the “epitope binning signal (name and unit not given)” value in test [1] was 0.008. The molecule further registered a concentration for a half-maximal effect (EC50) in test [2] of 0.0247 µg/mL.

B3: 3Tigit-29 mouse monoclonal antibody (antibody, V domains shown)
VH: EVQLQQSGPELVKPGASVKISCKASGYTFTDYNMHWVKQSLGKSLEWIGYVNSFNGNTGYSQKFKSKVTLTVDRSSRTAYMDLRSLTSEDSAVFYCARSSRGGFAYWGQGTLVTVSA
VL: QIVLTQSPAIMSASPGEKVTMTCSASSSVSYMHWYQQKSGTSPKRWIYDTSKLASGVPARFSGSVSGTSYSLTISSMEAEDAATYYCQQWSSNSLTFGAGTKLELKR
notes: as for B1
On to B3, for which, in test [1], the “epitope binning signal (name and unit not given)” value was -0.0018. In test [2], this molecule gave a concentration giving a half-maximal response (EC50) of 0.0217 µg/mL.

B4: 3Tigit-12 mouse monoclonal antibody (antibody, V domains shown)
VH: QVQLQQSGAELVRPGTSVKMSCKAAGYTFTNYWIGWVKQRPGHGLEWIGDIYPGGGYTNYDEKFKGKATLTADTSSRTAYMQLSSLTSEDSAIYHCVNGGYGSTYGYFDVWGAGTTVTVSS
VL: DIVMSQSPSSLPVSVGEKVTMSCKSSQSLLFSSDQKNYLAWYQQKPGQSPKLLIYWASTRESGVPDRLTGSGSGTDFTLTISSVKAEDLAVYYCQQYHKYPFTFGGGTKLEIKR
notes: as for B1
On to B4, for which, in test [1], the “epitope binning signal (name and unit not given)” value amounted to 0.01.

B5: 14Tigit-1-1 mouse monoclonal antibody (antibody, V domains shown)
VH: DVQLQESGPGLVKPSQSLSLTCTVTGYSITSDYAWNWIRQFPGNKLEWMGYISYSGSTRSNPSLKSRISITRDTSKNQFFLQLNSMTAEDTATYYCGGWEVRNYYAMDYWGQGTSVTVSS
VL: DIVMTQSHKFMSTSVGDRVSITCKASQHVSTAVAWYQQKPGQSPKLLIYSASYRYTGVPDRFTGSGSGTDFTFTISSVQAEDLAVYYCQQHYNTPWTFGGGTKLEIKR
notes: as for B1
With B5, the “IC50 (read off the curve)” value in the test with hTIGIT-hFc [3] is ~1 nM. Further, half-maximal inhibition with hTIGIT-hFc [4] (IC50) required 2.52 nM.
